Reference: patent US10905748B2, “Ovotransferrin treatment for the reproductive tract” (Vets Plus, Inc., priority 2018, dated 2021)

Legend:
[1] = tested on: metritis causing bacteria; test: Agar well zone of inhibition on bacteria cultured from metritis discharge; format: cell-based, bacteria from the discharge of a cow diagnosed with metritis; settings: 24 hour diffusion at 37° C.
Method: A cow that was diagnosed with metritis, as evidenced by elevated temperature, elevated total leukocyte count, raised tails, and foul smelling discharge, had the discharge cultured onto blood agar plates. Bacteria colonies with different morphology from the metritis discharge that grew were selected and placed into 20 ml liquid nutrient broth in culture tubes at a defined amount and incubated overnight at 37° C. The bacteria in the liquid nutrient broth was then used to create agar plates by mixing 1 ml of nutrient broth containing bacteria with 15 ml of warm agar and poured into petri dishes and incubated for 24-48 hrs. at 37° C. Then, holes were punched into the agar and a dose response of previously purified ovotransferrin at 0%, 10% and 25% w/v in sterile water was placed in the holes. The plates were allowed to diffuse for 24 hour at 37° C. to check for zone of inhibition. Zones of inhibition were visualized by clearings in the agar where no bacteria grew. […] This is consistent with ovotransferrin in killing the bacteria that cause metritis. It was concluded that ovotransferrin of the invention is able to inhibit growth of the metritis causing bacteria in a dose dependent manner.

[2] = tested on: Cows with clinical endometritis; test: Intrauterine infusion of ovotransferrin solution in cows with clinical endometritis; format: in vivo, cow
Source text: Cows with clinical endometritis (n=4) were identified based on the clinical signs, rectal temperature, score of mucus characteristics, total polymorph numbers, pH of uterine discharge, uterine swab analysis, and bacterial culture, along with healthy cows (control, n=4). Two hundred ml of a 5% ovotransferrin solution of the invention were infused intrauterine with a special pipette attached to a pump in the treatment group. Seven days later, all the above parameters were reexamined. Total number of polymorph in uterine discharge was counted using a hemocytometer, stained with Giemsa and Gram stain.
(§1) Cows with clinical endometritis (n=3) were identified based on the clinical signs, rectal temperature, score of mucus characteristics, total polymorph numbers, pH of uterine discharge, uterine swab analysis, and bacterial culture, along with healthy cows (control, n=3. Two hundred ml of a 5% ovotransferrin solution of the invention were infused intrauterine with a special pipette attached to a pump in the treatment group. Seven days later, all the above parameters were reexamined.
as §1, with “(n=4)” for “(n=3)”, “n=4).” for “n=3.”, “reexamined. Mucus score was 6 times higher in metritis affected cows than control values. […] This indicates the invention was efficacious for treatment metritis in cows.” for “reexamined.”
Cows with clinical endometritis (n=4) were identified based on the clinical signs, rectal temperature, score of mucus characteristics, total polymorph numbers, pH of uterine discharge, uterine swab analysis, and bacterial culture, along with healthy cows (control, n=4). Two hundred ml of a 5% ovotransferrin solution of the invention were infused intrauterine with a special pipette attached to a pump in the treatment group. Seven days later, all the above parameters were reexamined.

[3] = tested on: infectious metritis in cows; test: Clinical trial of ovotransferrin bolus to prevent infectious metritis in postpartum cows; format: in vivo, cow; settings: examined after 30 days
Method: (§2) A clinical trial was conducted to examine efficacy of the invention to prevent infectious metritis in cows. 10 gram of purified Ovotransferrin was mixed with 10 grams of binding agent to create a 20 gram total bolus with dimensions of 2 cm wide and 6 cm long. For N=5 cows from a herd known to have the standard metritis rate were selected that were 3 hours postpartum. Two boluses were inserted into the uterus and allowed to dissolve. The cows were monitor daily for any obvious signs of metritis. After 30 days, the cows were examined in detail for clinical signs of metritis. […] It would be expected that at least one of the cows of this group would have had metritis 10-12 days without the use of the invention.
as §2, with “A single bolus was” for “Two boluses were”
as §2, with “cows. 2.5” for “cows. 10”, “with 17.5” for “with 10”, “For N=7” for “For N=5”
A clinical trial was conducted to examine efficacy of the invention to prevent infectious metritis in cows. 2.5 gram of purified Ovotransferrin was mixed with 17.5 grams of binding agent to create a 20 gram total bolus with dimensions of 2 cm wide and 6 cm long. For N=7 cows from a herd known to have the standard metritis rate were selected that were 3 hours postpartum. A single bolus was inserted into the uterus and allowed to dissolve. The cows were monitor daily for any obvious signs of metritis. After 30 days, the cows were examined in detail for clinical signs of metritis. […]

B1: ovotransferrin (protein, UniProt P02789 20-705, looked up)
Ovotransferrin: APPKSVIRWCTISSPEEKKCNNLRDLTQQERISLTCVQKATYLDCIKAIANNEADAISLDGGQAFEAGLAPYKLKPIAAEVYEHTEGSTTSYYAVAVVKKGTEFTVNDLQGKTSCHTGLGRSAGWNIPIGTLLHRGAIEWEGIESGSVEQAVAKFFSASCVPGATIEQKLCRQCKGDPKTKCARNAPYSGYSGAFHCLKDGKGDVAFVKHTTVNENAPDQKDEYELLCLDGSRQPVDNYKTCNWARVAAHAVVARDDNKVEDIWSFLSKAQSDFGVDTKSDFHLFGPPGKKDPVLKDLLFKDSAIMLKRVPSLMDSQLYLGFEYYSAIQSMRKDQLTPSPRENRIQWCAVGKDEKSKCDRWSVVSNGDVECTVVDETKDCIIKIMKGEADAVALDGGLVYTAGVCGLVPVMAERYDDESQCSKTDERPASYFAVAVARKDSNVNWNNLKGKKSCHTAVGRTAGWVIPMGLIHNRTGTCNFDEYFSEGCAPGSPPNSRLCQLCQGSGGIPPEKCVASSHEKYFGYTGALRCLVEKGDVAFIQHSTVEENTGGKNKADWAKNLQMDDFELLCTDGRRANVMDYRECNLAEVPTHAVVVRPEKANKIRDLLERQEKRFGVNGSEKSKFMMFESQNKDLLFKDLTKCLFKVREGTTYKEFLGDKFYTVISSLKTCNPSDILQMCSFLEGK
notes: 12 to 13% of total egg white protein
In the case of B1, the zone of inhibition ([1]; 10% w/v ovotransferrin in sterile water in agar wells) is reported as “a zone of inhibition was seen”, the zone of inhibition ([1]; 25% w/v ovotransferrin in sterile water in agar wells) is reported as “a larger zone” and the “Mean pH of uterine discharge” value ([2]; one week after intrauterine infusion of 200 ml 5% solution, 8.8 before treatment, healthy control 6.8, n=3, p<0.05, FIG. 2) is reported as 7.0. For the same molecule, the Rectal temperature ([2]; one week after intrauterine infusion of 200 ml 5% solution, >40° C. before treatment, n=4, FIG. 1) was 38.5 °C, the Mucus score ([2]; seven days after intrauterine infusion of 200 ml 5% solution, 6 times control before treatment, n=4, FIG. 3) was “statistically significant decrease” and the “Total number of polymorph in uterine discharge” value ([2]; seven days after intrauterine infusion of 200 ml 5% solution, more than 70 times control before treatment, n=4, FIG. 4) was “statistically significantly (p<0.01) reduced (2 and 4 times higher, respectively, compared with control)”. For the same molecule, the “clinical signs of metritis” value ([3]; single bolus of 2.5 g ovotransferrin in uterus 3 hours postpartum, N=7) was “None of the cows had any signs of metritis”, the “clinical signs of metritis” value ([3]; single bolus of 10 g ovotransferrin in uterus 3 hours postpartum, N=5) was “None of the cows had any signs of metritis” and the “clinical signs of metritis” value ([3]; two boluses of 2.5 g ovotransferrin (5 grams) in uterus 3 hours postpartum, N=7) was “None of the cows had any signs of metritis”. For the same molecule, the “clinical signs of metritis” value ([3]; two boluses of 10 g ovotransferrin (20 grams) in uterus 3 hours postpartum, N=5) was “None of the cows had any signs of metritis”.
